Kd, koff and kon data for 24 molecules are collected here from patent publication US20210324054A1.

Substitutions are numbered along the chain they refer to.

The target of this assay is DN-IV quality control recombinant protein (produced by the company) (dengue virus). In words: BLI, antibody on AMC sensor. In general terms: BLI is a label-free optical method that tracks binding on a fibre tip over time.

B1: Mutation 1-23 (antibody, V domains shown)
VH: EVQLQQPGPELVKPGASVKMSCKASGYTFTSYVIHWVRQKPGQGLEWIGYMNPYNDGLKYNEKFIGKAILTSDKSSSTAYMQLSSLTSEDSAVYYCTKEGLFYVFDYWGQGTSVTVSS
VL: QIVLTQSPAIMSASPGEKVTMTCSATSSLSYMHWYQQKSGTSPKRWIYDSSKLASGVPVRFSGSGSGTSYSLTISSMEAEDAATYFCQQWRSDLPTFGAGTKLELKR
B1: the Kd (usually the constant that tells how readily two partners part at equilibrium) stood at 3970 pM; the koff – broadly, the rate constant with which the complex falls apart – was 0.00019 s⁻¹; the kon (as a rule, the second-order rate constant of association) was determined as 47800 M⁻¹ s⁻¹.

B2: Mutation 1-27 (antibody, V domains shown)
VH: B1 VH with Y32T, K98R
VL: B1 VL with L29V
For B2, the Kd was 3550 pM, the koff was 0.000149 s⁻¹ and the kon is 42000 M⁻¹ s⁻¹.

B3: Mutation 1-35 (antibody, V domains shown)
VH: B1 VH with F105M
VL: B1 VL with L29V, Q89W
B3: the Kd was found to be 661 pM, the koff is 0.000252 s⁻¹ and the kon turned out to be 381000 M⁻¹ s⁻¹.

B4: Mutation 1-44 (antibody, V domains shown)
VH: B1 VH with K98R
VL: B1 VL with L29V, Q89Y
Regarding B4, the Kd was determined as 2630 pM, the koff amounted to 0.00011 s⁻¹ and the kon was 41800 M⁻¹ s⁻¹.

B5: Mutation 1-45 (antibody, V domains shown)
VH: B1 VH with Y32T, L58I
VL: B1 VL with Q89W
B5: the Kd worked out at 4220 pM, the koff is 0.000174 s⁻¹ and the kon is 41200 M⁻¹ s⁻¹.

B6: Mutation 1-28 (antibody, V domains shown)
VH: B1 VH with Y32S, L58I, F105M
VL: B1 VL with L29V, S50T, Q89Y
Consider B6, for which the Kd is 591 pM, the koff was determined as 0.000259 s⁻¹ and the kon is 438000 M⁻¹ s⁻¹.

B7: Mutation 1-34 (antibody, V domains shown)
VH: B1 VH with Y32S, L58I, K98R
VL: B1 VL with S50T, Q89Y
On to B7, for which the Kd worked out at 2890 pM, the koff stood at 0.000112 s⁻¹ and the kon was 38700 M⁻¹ s⁻¹.

B8: Mutation 1-26 (antibody, V domains shown)
VH: B1 VH with L58I, K98R, F105M
VL: B1 VL with S50T, Q89W
In the case of B8, the Kd was determined as 3610 pM, the koff is 0.000152 s⁻¹ and the kon was found to be 42100 M⁻¹ s⁻¹.

B9: Mutation 1-29 (antibody, V domains shown)
VH: B1 VH with L58I, K98R
VL: B1 VL with L29I, Q89W
Take B9: the Kd came out at 493 pM, the koff was 0.000178 s⁻¹ and the kon was 361000 M⁻¹ s⁻¹.

B10: Mutation 1-24 (antibody, V domains shown)
VH: B1 VH with Y32T, L58I, K98R, F105M
VL: B1 VL with L29V, S50T, Q89Y
B10: the equilibrium dissociation constant (Kd) is 2850 pM, the koff came out at 0.000133 s⁻¹ and the kon amounted to 46600 M⁻¹ s⁻¹.

B11: Mutation 1-46 (antibody, V domains shown)
VH: B1 VH with Y32S, K98R, F105M
VL: B1 VL with L29V, S50T
On to B11, for which the Kd stood at 569 pM, the koff amounted to 0.000222 s⁻¹ and the kon worked out at 390000 M⁻¹ s⁻¹.

B12: Mutation 1-33 (antibody, V domains shown)
VH: B1 VH with Y32T, K98R
VL: B1 VL with L29I, Q89W
For B12, the dissociation constant Kd came out at 560 pM, the koff was determined as 0.000276 s⁻¹ and the kon is 493000 M⁻¹ s⁻¹.

B13: Mutation 1-43 (antibody, V domains shown)
VH: B1 VH with Y32S, L58I, F105M
VL: B1 VL with S50T, Q89Y
For the molecule B13, the Kd stood at 624 pM, the koff worked out at 0.000256 s⁻¹ and the kon is 410000 M⁻¹ s⁻¹.

B14: Mutation 1-37 (antibody, V domains shown)
VH: B1 VH with Y32S, L58I, K98R
VL: B1 VL with L29V, S50T, Q89Y
For B14, the Kd came to 3630 pM, the koff worked out at 0.000145 s⁻¹ and the kon was determined as 39900 M⁻¹ s⁻¹.

B15: Mutation 1-36 (antibody, V domains shown)
VH: B1 VH with Y32T, K98R
VL: B1 VL
Consider B15, for which the Kd is 657 pM, the koff is 0.000282 s⁻¹ and the association rate constant (kon) is 429000 M⁻¹ s⁻¹.

B16: Mutation 1-38 (antibody, V domains shown)
VH: B1 VH with F105M
VL: B1 VL with L29I, Q89W
In the case of B16, the Kd worked out at 643 pM, the koff was 0.000292 s⁻¹ and the kon is 454000 M⁻¹ s⁻¹.

B17: Mutation 1-41 (antibody, V domains shown)
VH: B1 VH with L58I, K98R, F105M
VL: B1 VL with L29I, Q89W
Regarding B17, the Kd is 455 pM, the koff came out at 0.00016 s⁻¹ and the kon was found to be 352000 M⁻¹ s⁻¹.

B18: Mutation 1-40 (antibody, V domains shown)
VH: B1 VH with Y32S
VL: B1 VL with L29V, S50T, Q89Y
Consider B18, for which the Kd came to 671 pM, the koff was 0.000261 s⁻¹ and the kon stood at 389000 M⁻¹ s⁻¹.

B19: Mutation 1-39 (antibody, V domains shown)
VH: B1 VH with Y32T, L58I, K98R
VL: B1 VL
Regarding B19, the Kd is 4550 pM, the koff amounted to 0.000186 s⁻¹ and the kon amounted to 40900 M⁻¹ s⁻¹.

B20: Mutation 1-32 (antibody, V domains shown)
VH: B1 VH with L58I, F105M
VL: B1 VL with L29V, S50T
In the case of B20, the Kd stood at 631 pM, the off-rate (koff) is 0.000221 s⁻¹ and the kon amounted to 350000 M⁻¹ s⁻¹.

B21: Mutation 1-30 (antibody, V domains shown)
VH: B1 VH with Y32T, K98R, F105M
VL: B1 VL with S50T, Q89Y
B21: the Kd amounted to 3120 pM, the koff came to 0.000132 s⁻¹ and the kon stood at 42300 M⁻¹ s⁻¹.

B22: Mutation 1-42 (antibody, V domains shown)
VH: B1 VH with Y32T, L58I, K98R
VL: B1 VL with S50T
As for B22, the Kd turned out to be 532 pM, the koff is 0.000209 s⁻¹ and the kon was 393000 M⁻¹ s⁻¹.

B23: Mutation 1-31 (antibody, V domains shown)
VH: B1 VH with Y32S, L58I, K98R
VL: B1 VL with L29V, Q89W
On to B23, for which the Kd amounted to 579 pM, the koff was 0.00023 s⁻¹ and the kon came to 397000 M⁻¹ s⁻¹.

B24: Mutation 1-25 (antibody, V domains shown)
VH: B1 VH with Y32S, K98R
VL: B1 VL with L29I, Q89W
With B24, the Kd amounted to 2920 pM, the koff came to 0.00014 s⁻¹ and the kon was determined as 47900 M⁻¹ s⁻¹.
